Reference: paper PMC4380364

Tests used:
[1] = target: T1, L-selectin (cell surface, Jurkat T lymphocytes) (Homo sapiens?) (UniProt P14151); test: flow cytometry titration; settings: FITC-labeled, Jurkat cells, competition with 100 nM FITC-DREG56 for 35 min at 4°C, washed in PBS, 2% PFA fix, SLeX assay in PBS with 1% human serum albumin …, scale: apparent affinity relative to LS-Multi-Aptamer
T1 sequence: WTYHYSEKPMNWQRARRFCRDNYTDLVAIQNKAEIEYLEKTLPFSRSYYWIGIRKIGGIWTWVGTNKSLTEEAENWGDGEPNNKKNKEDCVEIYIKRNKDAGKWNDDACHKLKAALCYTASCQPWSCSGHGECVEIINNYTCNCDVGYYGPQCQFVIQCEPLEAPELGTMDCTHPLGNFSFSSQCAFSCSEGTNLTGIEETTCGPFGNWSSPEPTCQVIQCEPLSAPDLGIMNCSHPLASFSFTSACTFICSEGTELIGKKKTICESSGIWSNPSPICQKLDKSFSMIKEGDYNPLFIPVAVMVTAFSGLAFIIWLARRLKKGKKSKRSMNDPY

[2] = target: T1, L-selectin (cell surface, Jurkat T lymphocytes); test: competition (flow cytometry); settings: vs 100 nM FITC-DREG56 antibody, 4°C, Jurkat cells, competition with 100 nM FITC-DREG56 for 35 min at 4°C, washed in PBS, 2% PFA fix, SLeX assay in PBS with 1% human serum albumin …

## TAGCCAAGGTAACCAGTACAAGGTGCTAAACGTAATGGCTTCGGCTTAC [LS-Aptamer (monovalent)]
[1]
  binding signal: 0.001
[2]
  IC50: > 1 µM
